± gives the standard deviation of the averaged measurements.
B1: library; a variant is named by its letters at N, in order (parent)
chain: AATGTTGTTGATGCAACCATAAAGTGATATTTAATAATTATTTATAATCAGCAACTTAACCACAAAACAACCATATATTGATATNTCACAAAACAACCATAANTTGATATTTTTGTGAATCGAGTATTTCAGCAAAACTACTGCAGTAAGAA

Key:
[1] = variants of: B1; experiment: relative integration efficiency (T-LR orientation) vs wild-type transposon end (log2 (normalized fold change)); transposon end mutated: left end; higher = more efficient transposition; conditions: with VchCAST RNA-guided transposition machinery (E. coli BL21(DE3) host, lacZ target)
Procedure, shortened: (§1)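 Relative integration efficiency is a fold change of output over input barcode abundance, normalised to reference barcodes and log-transformed. Input plasmids and genomic integration junctions were PCR-amplified and Illumina-sequenced from E. coli BL21(DE3) co-transformed with a T7-driven effector plasmid and pUC57 donor pools of 1549 left-end or 1849 right-end transposon variants. Plating was done with 0.1 mM IPTG at 37°C for 18 h, with two biological output replicates and four reference barcodes.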

[2] = variants of: B1; experiment: relative integration efficiency (T-RL orientation) vs wild-type transposon end (log2 (normalized fold change)); transposon end mutated: left end; higher = more efficient transposition; conditions: with VchCAST RNA-guided transposition machinery (E. coli BL21(DE3) host, lacZ target)
Procedure, shortened: as §1

Row | Variant | relative integration efficiency (log2) [1] | relative integration efficiency (log2) [2]
1 | AATGTTGTTGATGCAACCATAAAGTGATATTTAATAATTATTTATAATCAGCAACTTAACCACAAAACAACCATATATTGATATCTCACATTACAACCATAAGTTGATATTTTTGTGAATCGAGTATTTCAGCAAAACTACTGCAGTAAGAA [CG A91T A92T] | 0.705 ± 0.2 | 0.108 ± 0.066
2 | AATGTTGTTGATGCAACCATAAAGTGATATTTAATAATTATTTATAATCAGCAACTTAACCACAAAACAACCATATATTGATATCTCACAGAACAACCATAAGTTGATATTTTTGTGAATCGAGTATTTCAGCAAAACTACTGCAGTAAGAA [CG A91G] | 0.0207 ± 0.21 | -0.155 ± 0.14
3 | AATGTTGTTGATGCAACCATAAAGTGATATTTAATAATTATTTATAATCAGCAACTTAACCACAAAACAACCATATATTGATATCTCACACAACAACCATAAGTTGATATTTTTGTGAATCGAGTATTTCAGCAAAACTACTGCAGTAAGAA [CG A91C] | -0.299 ± 1.1 | -0.278 ± 0.17
4 | AATGTTGTTGATGCAACCATAAAGTGATATTTAATAATTATTTATAATCAGCAACTTAACCACAAAACAACCATATATTGATATCTCACATAACAACCATAAGTTGATATTTTTGTGAATCGAGTATTTCAGCAAAACTACTGCAGTAAGAA [CG A91T] | -0.0651 ± 0.68 | -0.101 ± 0.084
5 | AATGTTGTTGATGCAACCATAAAGTGATATTTAATAATTATTTATAATCAGCAACTTAACCACAAAACAACCATATATTGATATCTCACACCCAAACCATAAGTTGATATTTTTGTGAATCGAGTATTTCAGCAAAACTACTGCAGTAAGAA [CG A91C A92C A93C C94A] | -0.269 ± 0.36 | -0.581 ± 0.55
6 | AATGTTGTTGATGCAACCATAAAGTGATATTTAATAATTATTTATAATCAGCAACTTAACCACAAAACAACCATATATTGATATCTCACACCACAACCATAAGTTGATATTTTTGTGAATCGAGTATTTCAGCAAAACTACTGCAGTAAGAA [CG A91C A92C] | 0.242 ± 0.39 | -0.116 ± 0.2
7 | AATGTTGTTGATGCAACCATAAAGTGATATTTAATAATTATTTATAATCAGCAACTTAACCACAAAACAACCATATATTGATATCTCACTTAACAACCATAAGTTGATATTTTTGTGAATCGAGTATTTCAGCAAAACTACTGCAGTAAGAA [CG A90T A91T] | 0.245 ± 0.23 | -0.308 ± 0.26
8 | AATGTTGTTGATGCAACCATAAAGTGATATTTAATAATTATTTATAATCAGCAACTTAACCACAAAACAACCATATATTGATATCTCACTAAACAACCATAAGTTGATATTTTTGTGAATCGAGTATTTCAGCAAAACTACTGCAGTAAGAA [CG A90T] | -0.375 ± 0.31 | -0.404 ± 0.16
9 | AATGTTGTTGATGCAACCATAAAGTGATATTTAATAATTATTTATAATCAGCAACTTAACCACAAAACAACCATATATTGATATCTCACATTTGAACCATAAGTTGATATTTTTGTGAATCGAGTATTTCAGCAAAACTACTGCAGTAAGAA [CG A91T A92T A93T C94G] | -1.3 ± 1.2 | -1.4 ± 0.69
10 | AATGTTGTTGATGCAACCATAAAGTGATATTTAATAATTATTTATAATCAGCAACTTAACCACAAAACAACCATATATTGATATCTCACTTTTCAACCATAAGTTGATATTTTTGTGAATCGAGTATTTCAGCAAAACTACTGCAGTAAGAA [CG A90T A91T A92T A93T] | -0.429 ± 0.24 | -0.557 ± 0.36

From the supplement of paper PMC10201428
